Key:
Assay in all cases: pull-down binding Z-score (relative to library population); higher = stronger binding
Settings in all cases: RNA library: Library-2
[1] = test system: TO-3-N3-2 (biotin conjugate)
In short: (§1)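 An RNA library (1 μg) carrying a Cy5 or Cy3 end label was heat-folded in phosphate/NaCl/KCl buffer, then incubated for 60 min at 25 °C with streptavidin beads loaded with 100 pmol of biotin-conjugated small molecule. The beads were washed three times, and bound RNA was released in hot SDS and hybridised to a DNA barcode microarray for 20 h at 55.5 °C. Each binding score was derived by subtracting the signal from beads without compound, averaging the barcoded replicate probes after removing the highest and lowest, and expressing the result as a Z-score relative to the library mean and standard deviation.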

[2] = test system: TO-N3-2 (biotin conjugate)
In short: as §1

[3] = test system: TO-3-N3 (biotin conjugate)
In short: as §1

TO-N3 (biotin conjugate) = test system: TO-N3 (biotin conjugate)
In short: as §1

Row | Sequence | pull-down binding Z-score [1] | pull-down binding Z-score [2] | pull-down binding Z-score [3] | pull-down binding Z-score (TO-N3 (biotin conjugate))
1 | UGACGAUGCUGUUGUGUGUUUCAAUAGCACUUAUGCAUCUCA [SHAPE_invitro_SARS-CoV-2_Motif_289] | -0.0833 | -0.71 | 1.24 | 1.01
2 | UGAGUACUGUAGGCACGGCACUUGUGAAAGAUCAGAAGCUGGUGUUUGUGUAUCUACUAGUGGUAGAUGGGUACUUA [DMSMaPseq_invitro_SARS-CoV-2_Multi_29_ComplexLevel_1] | -0.0976 | 0.628 | -0.254 | 0.0497
3 | UGAGUGUGACAUACCCAUUGGUGCAGGUAUAUGCGCUAGUUAUCAGACUCA | 0.422 | 0.541 | 0.734 | 0.865
4 | UGAUAAAUUCA [SHAPE_invivo_SARS-CoV-2_Motif_325] | -0.375 | -1.19 | -0.376 | -0.712
5 | UGAUAGUCAACAAACUGUUGGUCAACAAGACGGCAGUGAGGACAAUCA | 0.241 | -0.167 | 0.68 | 0.595
6 | UGAUGCAGCCAUGCAACGUAAGUUGGAAAAGAUGGCUGAUCA | -0.36 | -0.974 | -1.03 | -1.16
7 | UGAUGCGUAUUAUGACAUGGUUGGAUAUGGUUGAUACUAGUUUGUCUGGUUUUAAGCUAAAAGACUGUGUUAUGUAUGCAUCA | -0.285 | -0.569 | -0.867 | -0.861
8 | UGAUGGUGUUCCAUUUGUAGUUUCAACUGGAUACCACUUCA [DMSMaPseq_invitro_SARS-CoV-2_Motif_261] | -0.236 | -0.82 | -0.0305 | -0.387
9 | UGAUGUCACAGAUGUGACUCA | -0.677 | -0.946 | -0.773 | -1.09
10 | UGAUGUUUGUCA | -0.778 | -1.2 | -0.46 | -0.762
11 | UGAUUUUUGUGGAAAGGGCUAUCAUCUUAUGUCCUUCCCUCAGUCA [SHAPE_invivo_SARS-CoV-2_Motif_462] | -0.0472 | -0.49 | -0.662 | -0.702
12 | UGCAACGAUACCGAUACAAGCCUCACUCCCUUUCGGAUGGCUUAUUGUUGGCGUUGCA | -0.134 | -0.000368 | -0.475 | -0.366
13 | UGCAAGAGAUGGUUGUGUUCCCUUGAACAUAAUACCUCUUACA [DMSMaPseq_invitro_SARS-CoV-2_Motif_219] | -0.0456 | -1.18 | -0.678 | -1.01
14 | UGCACUUGACCCUCUCUCAGAAACAAAGUGUA | -0.162 | -0.236 | 0.756 | 0.625
15 | UGCAGAUUCAACUUUGAUUGGUGAUUGUGCA | 0.191 | -0.565 | 0.338 | 0.273
16 | UGCAGAUUUGGAUGAUUUCUCCAAACAAUUGCA | -0.117 | -0.51 | 0.0526 | -0.0544
17 | UGCAGCAGAAACGCUCA [SHAPE_invitro_SARS-CoV-2_Motif_303] | 0.0228 | 0.533 | 0.273 | 0.371
18 | UGCAUUUCUUACCUAGAGUUUUUAGUGCA [DMSMaPseq_invitro_SARS-CoV-2_Motif_163] | -0.416 | -1.24 | -0.82 | -1.09
19 | UGCCAUUUGUCAUGAUGGAAAAGCACACUUUCCUCGUGAAGGUGUCUUUGUUUCAAAUGGCA [SHAPE_invivo_SARS-CoV-2_Motif_465] | -0.218 | -0.463 | -0.108 | -0.0789
20 | UGCCGACUACUAUAGCAAAGAAUACUGUUAAGAGUGUCGGUA | -0.206 | -0.182 | -0.357 | -0.385
21 | UGCCUUCAAACUCAACAUUAAAUUGUUGGGUGUUGGUGGCA | -0.352 | -1.07 | -0.701 | -0.909
22 | UGCGAGAAAUGCUUGCA [SHAPE_invitro_SARS-CoV-2_Motif_85] | -0.0133 | -0.155 | 1.12 | 0.918
23 | UGCUAACUAAGGGCA | -0.0827 | -0.388 | 0.877 | 0.627

Row | Sequence | pull-down binding Z-score [1] | pull-down binding Z-score [2] | pull-down binding Z-score [3] | pull-down binding Z-score (TO-N3 (biotin conjugate))
24 | UGCUCAAGAAGCUUAUGAGCA [SHAPE_invivo_SARS-CoV-2_Motif_229] | 0.0729 | 0.0417 | -0.554 | -0.253
25 | UGCUGAGGCUUCUAAGAAGCCUCGGCA | -0.197 | -1.28 | 0.0854 | -0.224
26 | UGCUGUUGUUAAAAUUUAUUGUCCAGCA [SHAPE_invitro_SARS-CoV-2_Motif_28] | -0.134 | -0.921 | -0.341 | -0.582
27 | UGCUUUCGUGGUA | -0.292 | -0.505 | 0.137 | 0.0358
28 | UGCUUUGGUGUAAAGAUGGCCAUGUAGAAACAUUUUACCCAAAAUUACAAUCUAGUCAAGCGUGGCAACCGGGUGUUGCUAUGCCUAAUCUUUACAAAAUGCA | -0.00692 | 0.252 | -0.104 | 0.0858
29 | UGGAAUUGCAAUGUCGAUAGAUAUCCUGCUAAUUCCA | 0.0197 | -0.0708 | -0.0259 | 0.0215
30 | UGGAGGAAUACAAAUCCA [SHAPE_invitro_SARS-CoV-2_Motif_386] | 0.00658 | -0.404 | 0.291 | 0.109
31 | UGGAUGUAAUUAUCUUGGCAAACCACGCGAACAAAUAGAUGGUUAUGUCAUGCAUGCA | -0.0277 | 0.157 | -0.833 | -0.682
32 | UGGCAUGGAAGUCA [DMSMaPseq_invitro_SARS-CoV-2_Motif_525] | -0.289 | -0.318 | 0.0287 | -0.262
33 | UGGCAUUAAUGCUUCAGUUGUAAACAUUCAAAAAGAAAUUGACCGCCUCAAUGAGGUUGCCA | -0.207 | -0.663 | -0.964 | -1.1
34 | UGGCCAUGGUACAUUUGGCUA | -0.0742 | -0.59 | 0.537 | 0.286
35 | UGGCCCCGAUUUCAGCUAUGGUUA [SHAPE_invitro_SARS-CoV-2_Motif_146] | -0.0487 | 0.341 | -0.129 | -0.032
36 | UGGCCGCAAAUUGCACAAUUUGCCCCCA [SHAPE_invitro_SARS-CoV-2_Motif_532] | -0.435 | -0.6 | -0.293 | -0.363
37 | UGGGAUAUUGCCCG [IAV_invivo_PB2_1_Motif_20+IAV_invivo_PB2_1_Motif_20] | -0.289 | -0.104 | -0.462 | -0.0714
38 | UGGGAUUAUCCUA [DMSMaPseq_invitro_SARS-CoV-2_Motif_276] | -0.249 | -0.609 | 0.251 | -0.106
39 | UGGGCACACUUUCUUAUGAACAAUUUAAGAAAGGUGUUCA [SHAPE_invivo_SARS-CoV-2_Motif_116] | -0.384 | -0.779 | -0.385 | -0.52
40 | UGGGGACCAGGAACUAAUCAGACAAGGAACUGAUUACAAACAUUGGCCGCAAAUUGCACAAUUUGCCCCCA | 0.0998 | 0.83 | -0.075 | 0.312
41 | UGGGGAGUUGAACCUA [IAV_invivo_PB2_1_Motif_19+IAV_invivo_PB2_1_Motif_19] | 0.0385 | -0.437 | 0.448 | 0.376
42 | UGGGGAUCACAACUCA [IAV_invivo_PB1_2_Motif_11+IAV_invivo_PB1_2_Motif_11] | -0.0635 | -0.317 | 0.479 | 0.158
43 | UGGGGCGCGAUCAAAACAACGUCGGCCCCA | 0.157 | -0.439 | 0.2 | 0.0437
44 | UGGGGUUGGGGUUGGGGUUGGGGUUGGGGUUGGGGU [G4_r(UGGGGU)6] | 8.72 | 4.95 | 7.92 | 6.75
45 | UGGGGUUGGGGUUGGGGUUGGGGUUGGGGUUGGGGUUGGGGUUGGGGU [G4_r(UGGGGU)8] | 8.63 | 4.93 | 7.69 | 6.59
46 | UGGGUAGAAUUCGAUCUGUCUAUCCA | -0.21 | -0.327 | -0.51 | -0.686

Row | Sequence | pull-down binding Z-score [1] | pull-down binding Z-score [2] | pull-down binding Z-score [3] | pull-down binding Z-score (TO-N3 (biotin conjugate))
47 | UGGGUUACAUCCUACACAGGCACCUACACACCUCAGUGUUGACACUAAAUUCAAAACUGAAGGUUUAUGUGUUGACAUACCUGGCAUACCUAAGGACAUGACCUA | -0.293 | 0.213 | -0.497 | -0.257
48 | UGGGUUAUCUUCAACCUA | -0.424 | -0.937 | -0.534 | -0.726
49 | UGGGUUGGGUUGGGUUGGGUUGGGUUGGGU [G4_r(UGGGU)6] | 10.2 | 5.72 | 8.7 | 7.32
50 | UGGGUUGGGUUGGGUUGGGUUGGGUUGGGUUGGGUUGGGU [G4_r(UGGGU)8] | 10.4 | 5.96 | 8.92 | 7.56
51 | UGGUAAUGCUGCUAUCAGCGAUUAUGACUACUAUCGUUAUAAUCUACCA | -0.385 | -0.119 | -0.937 | -1.09
52 | UGGUACUAUCUAUACAGAACUGGAACCA [SHAPE_invitro_SARS-CoV-2_Motif_233] | -0.345 | -0.456 | -0.352 | -0.445
53 | UGGUACUGAAGAUGAUUACCA [SHAPE_invitro_SARS-CoV-2_Motif_57] | 0.306 | 0.00913 | -0.272 | -0.278
54 | UGGUAUUCUUGCUA | -0.339 | -0.632 | -0.297 | -0.551
55 | UGGUGUUAGAAGGUCCUUUUAUGUCUAUGCUAAUGGAGGUAAAGGCUUUUGCAAACUA [SHAPE_invitro_SARS-CoV-2_Motif_149] | -0.276 | -0.562 | -0.638 | -0.58
56 | UGGUUGGUUGGUUGGUUGGUUGGU [G4_r(UGGU)6] | 7.83 | 4.58 | 7.93 | 6.68
57 | UGGUUGGUUGGUUGGUUGGUUGGUUGGUUGGU [G4_r(UGGU)8] | 9.27 | 5.6 | 8.68 | 7.53
58 | UGGUUUCCAACCCACUAAUGGUGUUGGUUACCA | -0.442 | -1.18 | -0.662 | -1.05
59 | UGGUUUGUAACACAAAGGAAUUUUUAUGAACCA [SHAPE_invivo_SARS-CoV-2_Motif_466] | 0.046 | -0.605 | 0.139 | -0.0419
60 | UGGUUUUGCUAAAUUCCUAAAAACUA [DMSMaPseq_invitro_SARS-CoV-2_Motif_244] | -0.0765 | -0.866 | -0.45 | -0.632
61 | UGUAAAUCACAUAAACCACCCAUUAGUUUUCCAUUGUGUGCUAAUGGACAAGUUUUUGGUUUAUA | 0.371 | -0.995 | -0.529 | -0.491
62 | UGUAAGCACAAGCUGAUGAGUACGAACUUAUGUACUCAUUCGUUUCGGAAGAGACAGGUACGUUAAUAGUUAAUAGCGUACUUCUUUUUCUUGCUUUCG [DMSMaPseq_invitro_SARS-CoV-2_Multi_80_ComplexLevel_1] | -0.529 | -0.373 | -1.03 | -0.883
63 | UGUACAUACAGCUAAUAAAUGGGAUCUCAUUAUUAGUGAUAUGUACG [DMSMaPseq_invitro_SARS-CoV-2_Motif_370] | -0.188 | -0.223 | -0.362 | -0.461
64 | UGUACAUCUUCUUUGCAUCAUUUUAUUAUGUAUGGAAAAGUUAUGUGCA [SHAPE_invitro_SARS-CoV-2_Motif_147] | -0.347 | -0.553 | -0.791 | -0.813
65 | UGUACUUGGAUUGGCUGCAAUCAUGCAAUUGUUUUUCAGCUAUUUUGCAGUACA [SHAPE_invivo_SARS-CoV-2_Motif_149] | -0.559 | -0.907 | -0.482 | -0.78
66 | UGUAUGAAAAUGCCUUUUUACCUUUUGCUAUGGGUAUUAUUGCUAUGUCUGCUUUUGCAAUGAUGUUUGUCAAACAUAAGCAUGCA | 0.0997 | -0.447 | -0.713 | -0.547
67 | UGUCACAUCAAUCUGACA | -0.268 | -0.472 | -0.221 | -0.416
68 | UGUCAUUACUUCAGGUGAUGGCA | -0.0892 | -1.31 | 0.0463 | -0.14
69 | UGUCCGUGAUCCACAGACA | -0.597 | -0.685 | -0.695 | -0.9

Source: the supplement of paper PMC11865577
